Measurements taken from US20220275059A1 (HARBOUR ANTIBODIES, published 2022).
Values joined by “and” are separate entries in the source; they are usually repeats but may differ in a detail not shown here. Equal entries are not always repeated.

Experiments:
[1] = target: T1, MERS-S on pseudotyped VSV particles (MERS-S carrying a 16-a.a. cytoplasmic tail truncation) (MERS-CoV, UniProt K9N5Q8 18-1337); test: cell-based or functional assay
[2] = target: T1, MERS-S on pseudotyped VSV particles …; test: cell-based or functional assay; remark: listed apart in the source
[3] = target: T2, MERS-CoV S S1 subunit (MERS-S1) (MERS-CoV EMC isolate, UniProt K9N5Q8 19-748); test: ForteBio Octet kinetic measurement (FIG. 3A)
[4] = target: T2, MERS-CoV S S1 subunit (MERS-S1); test: ELISA on coated MERS-S1, OD450 [D]
MERS-S1^A domain = target: T3, MERS-S1^A domain (MERS-CoV EMC isolate, UniProt K9N5Q8 19-357); test: ELISA on coated MERS-S1^A, OD450 [D]
T3 sequence: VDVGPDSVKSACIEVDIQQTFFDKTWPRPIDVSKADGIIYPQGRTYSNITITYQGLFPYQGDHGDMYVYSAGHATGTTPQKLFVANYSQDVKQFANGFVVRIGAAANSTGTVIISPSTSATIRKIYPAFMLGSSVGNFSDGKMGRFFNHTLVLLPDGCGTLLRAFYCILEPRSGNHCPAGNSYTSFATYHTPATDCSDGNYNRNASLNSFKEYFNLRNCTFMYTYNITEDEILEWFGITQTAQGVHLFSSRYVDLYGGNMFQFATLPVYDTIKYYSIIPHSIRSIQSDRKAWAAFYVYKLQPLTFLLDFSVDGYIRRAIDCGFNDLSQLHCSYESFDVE

[5] = target: MERS-S1^B domain (receptor binding domain) (MERS-CoV EMC isolate, UniProt K9N5Q8 358-588); test: ELISA on coated MERS-S1^B, OD450 [D]
SARS-CoV spike protein = SARS-CoV spike protein (SARS-CoV, UniProt P59594 15-1182); test: ELISA on SARS Secto
[6] = target: T2, MERS-CoV S S1 subunit (MERS-S1); test: ForteBio Octet / BLI (FIG. 2F and 3A)
[7] = target: T2, MERS-CoV S S1 subunit (MERS-S1); test: affinity measurement of HCAbs (method not told)
peptide 10 = test: ELISA on coated overlapping MERS-S2 peptides, A450 [D00032 Fig. 14(B]
peptide 11 = test: as above
[8] = target: MERS-S2 ectodomain (MERS-S2^ecto) (MERS-CoV EMC isolate, UniProt K9N5Q8 752-1262)

B1: 7.7g6 (antibody, V domains shown)
VH: QVQLVQTGAEVKKPGSSVKVSCKASGGTFSIYAISWVRQAPRQGLEWMGGIIPIFGTANYAQKFQGRVTITADKSTNTAYMELSRLRSEDTAVYYCAREGDDVLVPTSRGFFDYWGQGTLVTVSS
VL: not shown
[1]
  IC50, neutralization of MERS-S pseudovirus infectivity (H2L2): ~0.00011 µg/mL
  IC50, neutralization of MERS-S pseudovirus infectivity (human IgG1): ~0.02 µg/mL
[2]
  IC50, neutralisation of MERS-S VSV pseudovirus on Vero cells: 0.001 µg/ml and 0.007 nM
[3]
  Kd: ~0.36 nM
[4]
  EC50 (read off the curve): ~20 ng/mL
MERS-S1^A domain
  binding result: no binding (tested: about 5x10^5 ng/ml)
[5]
  EC50 (read off the curve): ~20 ng/mL

B2: 1.10f3 (antibody, V domains shown)
VH: QVQLVESGGGVVQPGRSLRLSCKASGFTFRGYGMHWVRQAPGKGLEWVTVIWHDASNKYYVDSVKGRFSISRDNSKNTLYLQMNSLRAEDTAVYYCARDAGLSFDIWGQGTMVTVSS
VL: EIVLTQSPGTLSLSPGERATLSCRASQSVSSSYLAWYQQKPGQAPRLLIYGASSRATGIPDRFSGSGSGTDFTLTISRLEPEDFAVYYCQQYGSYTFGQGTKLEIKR
[2]
  IC50, neutralisation of MERS-S VSV pseudovirus on Vero cells: > 10 µg/ml and > 66.7 nM
[3]
  Kd: ~4.8 nM
[4]
  EC50 (read off the curve): ~100 ng/mL
MERS-S1^A domain
  EC50 (read off the curve): ~70 ng/mL
[5]
  binding result: no binding (tested: about 5x10^5 ng/ml)

B3: 1.13a9 (antibody, V domains shown)
VH: EVQLVESGGGLVQPGGSLRLSCAASGFTFSNYWMTWVRQAPGKGLEWVANIKEDGSEKYYVDSVKGRFTLSRDNAKNSLYLQMNSLRAEDTAVYYCAKEGALLWFGVLRPRAFDIWGQGTMVTVSS
VL: DIVMTQSPLSLPVTPGEPASISCRSSQSLLHSNGYNYLDWYLQNPGQSPHLLIYLASNRASGVPDRFSGSGSGTDFTLKISRVEAADVGVYYCMQALQTPYTFGQGTKLEIKR
SARS-CoV spike protein
  binding result: no binding (tested: 25.00 (no unit printed))

B4: 4.6e10 (antibody, V domains shown)
VH: QVQLVESGGGVVQPGRSLRLSCTASGFTFTYYGLHWVRQAPGKGLEWVAVIWYDGSNQYYADSVQGRFTISRDNSKNTLYLQMNSLRAEDTAVYYCAREGLGAVAGYYFDYWGQGTLVTVSA
VL: DIQMTQSPSSLSASVRDRVTITCRASQIISNYLNWYQQKPGKAPKLLIYAASSLQSGVPSRFSGSGSGTDFTLTISSLQPEDFATYFCQQSYSTPFAFGPGTKVDIKR
[1]
  IC50, MERS-S pseudovirus infection (human IgG1): 0.32 nM
  IC50, neutralization of MERS-S pseudovirus infectivity (H2L2): ~0.0313 µg/mL
  IC50, neutralization of MERS-S pseudovirus infectivity (human IgG1): ~0.07 µg/mL
[2]
  IC50, neutralisation of MERS-S VSV pseudovirus on Vero cells: 0.048 µg/mL
[6]
  Kd: ~0.36 nM
MERS-S1^A domain
  binding result: no binding (tested: about 5x10^5 ng/ml)

B5: 1E10 heavy chain-only antibody (antibody, V domains shown)
VH: EVQLLESGGGWVQPGGSLRLSCAASGFTFSTNAMSWVRQAPGKGLEWVSGISGSGGSTDYADSVKGRFTISRDNSKNTLYLQMNSLRAEDTAVYYCAPRIAVAPDALDIWGQGTMVTVSS
[7]
  Kd: 1 nM

B6: 1H5 heavy chain-only antibody (antibody, V domains shown)
VH: EVQLVESGGGLVQPGGSLRLSCAASGFTFSSYWMLWVRQAPGEGLVWVSRIDSDGSNTTYADSVKGRFTVSRDNAKNTLYLQMNSLRAEDTAVYYCARSGYGYAFDIWGQGTMVTVSS
[7]
  Kd: 10.9 nM

B7: 2.6h11 (antibody, V domains shown)
VH: EVQLVESGGGLVQPGRSLRLSCTASGFTFGDYVMSWFRQAPGKGLEWVGFIRSKAHGGTTEYAASVNGRFSISRDDSKTIAYLQMNSLKSEDTAVYYCTWLRNDYYYGMDVWGLGTTVTVSS
VL: DIMMTQSPLSLPVTPGEPASISCRSSQRLLHSNGYSYVDWYLQKPGQSPQLLIYLGSDRASGVPDRFSGSGSGTDFTLKISRVEAEDVGVYYCMQTLQTPWTFGQGTKVEIKR
SARS-CoV spike protein
  binding result: no binding (tested: 25.00 (no unit printed))
Peptide 10
  binding result: no binding
Peptide 11
  binding result: no binding

B8: 1.5d6 (antibody, V domains shown)
VH: QVQLVESGGGVVQPGRSLRLSCAASGFTFSRYGMHWVRQAPGKGLEWVAVIGYDGSNKYYADSVKGRFTISRDNSKNTLSLQMNSLRAEDTAVYYCARGGWNDDYYYGLDVWGQGTTVTVSS
VL: DIVMTQSPLSLPVIPGEPASISCRSSQSLLHSNGYNYLDWYLQKPGQSPQLLIYLGSNRASGVPDRFSGSGSGTDFTLKISIVEAEDAGVYYCMQVLQTPWTFGQGTKVEIKR
SARS-CoV spike protein
  binding result: no binding (tested: 25.00 (no unit printed))

B9: 1.12g2 (antibody, V domains shown)
VH: QVQLVESGGGVVQPGRSLRLSCAASGFTFSSYGMHWVRQAPGKGLEWVAVICYDGSDKYYTDSVRGRFTISRDNSKNTLYLQMNSLRVEDTAMYFCARGGWIDDYYYGMDVWGQGTTVTVSS
VL: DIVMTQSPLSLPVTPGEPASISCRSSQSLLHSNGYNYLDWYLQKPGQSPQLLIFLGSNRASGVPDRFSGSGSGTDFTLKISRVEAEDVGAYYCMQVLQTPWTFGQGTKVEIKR
SARS-CoV spike protein
  binding result: no binding (tested: 25.00 (no unit printed))

B10: 3.5g6 (antibody, V domains shown)
VH: QVQLQQSGPGLVKPSQTLSLTCAISGHSVSSNSADWNWIRQSPSRGLEWLGRTYCRSKCYNDYAVSVKSRITINPDTSKNQFSLQLNPVTPEDTAVYYCARSLGSGTYPFDSWGQGTLVTVSS
VL: DIQMTQSPSSLSASVGDRVTITCRASQRISRFLNWYQQTPGKAPKFLIYAASSLQSGVPSRFSGSGSGTDFTLTISSLQPEDFATYYCQQSYSTPLTFGGGTTVEIKR
[8]
  EC50 (read off the curve): ~200 ng/mL
[1]
  IC50, MERS-S pseudovirus (human IgG1): 16.6 nM
SARS-CoV spike protein
  binding result: no binding (tested: 25.00 (no unit printed))
[2]
  IC50, neutralisation of MERS-S VSV pseudovirus on Vero cells: 2.49 µg/mL
[4]
  binding result: no binding (tested: about 5x10^5 ng/ml)
MERS-S1^A domain
  binding result: no binding (tested: about 5x10^5 ng/ml)
[5]
  binding result: no binding (tested: about 5x10^5 ng/ml)

B11: 1G3 heavy chain-only antibody (antibody, V domains shown)
VH: EVQLVESGGGVVQPGRSLRLSCAASGFTFSSYGMHWVRQAPGKGLEWVAVIWYDGSNKYYADSVKGRFTISRDNSKNTLYLQMNSLRAEDTAVYYCARDERIFGVPDAFDIRGQGTMVTVSS
[7]
  Kd: 21.7 nM

B12: 1.8e5 (antibody, V domains shown)
VH: QVQLQESGPGLVKPSGTLSLTCAVSGGSISSNRWWTWVRRSPGKGLEWIGEIYHSGSTNYNPSLKSRVTISVDRSKNQFSLKLSSVTAADTAVYYCASLTLIWFGEKAFDIWGQGTMVTVSS
VL: EIVMTQSPATLSVSPGERATLSCGASPSVSTNLAWYQQRPGQAPRLLIYGISTRAAGIPARFSGTGSGTEFTLTISSLQSEDFALYYCQQYNNWPYTFGQGTKLEIKR
[1]
  IC50, MERS-S pseudovirus infection (human IgG1): 10 nM
  IC50, neutralization of MERS-S pseudovirus infectivity (H2L2): ~0.0903 µg/mL
  IC50, neutralization of MERS-S pseudovirus infectivity (human IgG1): ~2.59 µg/mL
[2]
  IC50, neutralisation of MERS-S VSV pseudovirus on Vero cells: 1.5 µg/mL
[6]
  Kd: ~0.32 nM
MERS-S1^A domain
  binding result: no binding (tested: about 5x10^5 ng/ml)
